The target in data set [1] is T1, Phosphorylated human leptin receptor peptide (QRQPFVK[pY] ATLISNSK), phosphorylated Y985 (Homo sapiens, UniProt P48357).
T1 construct: Phosphorylated human leptin receptor peptide (QRQPFVK[pY] ATLISNSK); purchased Anygen (Gwangju, Korea); host or cells: synthetic peptide
Briefly: Binding affinity to leptin receptor by isothermal titration calorimetry (ITC). As to conditions: leptin receptor peptide phosphorylated at Y985, storage buffer pH 4.0. As for the experimental part: The binding affinity of cell-permeable truncated SOCS3 SH2 domain recombinant proteins to leptin receptor was analysed using isothermal titration calorimetry (ITC). Phosphorylated human leptin receptor peptide (QRQPFVK[pY] ATLISNSK) used in the experiment was acquired from Anygen (Gwangju, Korea). The binding affinity of aMTD524-P2-1-6 was measured using the following methods. Leptin receptor peptide was dissolved into DMSO and was diluted into storage buffer (50 mM sodium acetate, 50 mM NaCl, pH 4.0) to reach a final peptide concentration of 400 μM and final DMSO concentration of 0.5%. Using dialysis method, purified aMTD524-P2-1-6 was maintained at the identical batch storage buffer, and was diluted to reach the final concentration of 50 μM. Next, binding affinity was measured using ITC (Auto-ITC200).

Data set [2] deals with leptin resistant mHypoA2/21-SOCS3 cells. Kind of data set: Biological activity test: overcoming leptin resistance (STAT3 phosphorylation, western blot). The class given is cell-based. The note with it: protein treated 1 hour, then 10 ng/mL mouse leptin 30 minutes. As for the experimental part:
To validate that cell-permeable truncated SOCS3 recombinant protein can overcome leptin resistance, the purified recombinant proteins were treated at leptin resistant cell line mHypoA2/21-SOCS3. mHypoA2/21-SOCS3 was produced by over-expressing SOCS3 at mouse hypothalamic neuron mHypoA2/21, and cultured using DMEM containing 10% FBS and 7 mg/mL geneticin. Cells were seeded at the concentration of 150000 cells/60 mm plate and on the following day the medium was replaced with 7 mg/mL geneticin containing serum free DMEM and starved the cells for the following 16 hours. Purified CP-SD recombinant proteins were diluted into 7 mg/mL geneticin containing serum free DMEM and treated for 1 hour, proteins were removed, and 10 ng/mL mouse leptin was treated for 30 minutes.
The cells were lysed in a lysis buffer (150 mM NaCl, 20 mM Tris, 1% triton-X-100, pH 7.5) containing protease inhibitor and […], incubated for 20 min at 4° C., and centrifuged at 13,000 rpm for 20 min at 4° C. Equal amounts of lysates were separated on 10% SDS-PAGE gels and transferred to a PVDF membrane. The membranes were blocked using TBST buffer 5% bovine serum albumin (BSA) and for western blot analysis incubated with the following antibodies diluted in TBST buffer 5% bovine serum albumin (BSA): anti-phospho-STAT3 (Cell Signaling Technology, USA), anti-STAT3 (Cell Signaling Technology, USA) and anti-myc (Cell Signaling Technology, USA), then HRP conjugated anti-rabbit secondary antibody (Cell Signaling Technology, USA) and anti-mouse secondary antibody (Cell Signaling Technology, USA). The protein bands were detected with ECL solution using luminescent image analyzer (ImageQuant LAS 500, GE Healthcare).

Data set [3] can be described thus: Turbidity with thermal stress of 37° C. (absorbance at 350 nm). The class given is physicochemical. As to conditions: for stability (turbidity) in serum free medium: thermal stress of 37° C. As for the experimental part:
The recombinant proteins were diluted in their storage buffer or serum free DMEM medium and added into wells of a clear 96 well plate. The plate was incubated at 37° C. and the absorbance of each well was measured at 350 nm every 30 minutes in a microplate reader (Synergy H1, BioTek).

B1: aMTD524-P2-1-6: SEQ ID No. 268; his tag-conjugated aMTD524-P2-1 (protein)
chain: GSSHHHHHHSSGLVPRGSHMAVALIVVPALAPEAAAKLIRDSSDQRHFFTLSVKTQSGTKNLRIQ
modifications: His tag; Amino acid Sequence of aMTD524-P2-1-6
B1 showed a Kd in data set [1] of 8 µM. For the same molecule, the “overcoming leptin resistance (STAT3 phosphorylation level)” value (“overcoming leptin resistance” for short) in data set [2] is “overcame leptin resistance”. Also, the “stability (turbidity) in storage buffer” value in data set [3] (thermal stress of 37° C. for 3 hours, storage buffer) is reported as “stable”.

B2: aMTD830-P2-1-32B: SEQ ID No. 266; aMTD830-replaced P2-1-32B (protein)
chain: IALVAAPVALVPEAAAKLIRDSSDQRHFFTLSVKTQSGTKNLRIQGGGGSGGGGSGGGGSGGGGSAYYIYSGGEKIPLVLSRPLSSNEAAAKEAAAKEAAAKMAEQSDKDVKYYTLEEIQKHKDSKSTWLILHHKVYDLTKFLEEHPGGEEVLGEQAGGDATENFEDVGHSTDARELSKTYIIGELHPDDRSKIAKPSETL
modifications: Amino acid Sequence of aMTD830-P2-1-32B
notes: aMTD830-replaced P2-1-32B
As for B2, the “overcoming leptin resistance” value in data set [2] is reported as “overcame leptin resistance”. Further, in data set [3], the “stability (turbidity) in serum free medium” value is “stable”.

B3: aMTD524-P2-1-24: SEQ ID No. 281; same regions as aMTD524-P2-1-23 with different linkers (protein)
chain: AVALIVVPALAPEAAAKLIRDSSDQRHFFTLSVKTQSGTKNLRIQGGGGSGGGGSGGGGSGGGGSHHYMGSGSGSGSAYYIYSGGEKIPLVLSRPLSSN
modifications: Amino acid Sequence of aMTD-P2-1-24
notes: same regions as aMTD524-P2-1-23 with different linkers
B3: the “overcoming leptin resistance” value in data set [2] is reported as “overcame leptin resistance”. Further, the “stability (turbidity) in serum free medium” value in data set [3] was “instability”.

B4: aMTD830-P2-1-24B: SEQ ID No. 261; aMTD830-replaced P2-1-24B (protein)
chain: IALVAAPVALVPEAAAKLIRDSSDQRHFFTLSVKTQSGTKNLRIQGGGGSGGGGSGGGGSGGGGSHHYMGSGSGSGSAYYIYSGGEKIPLVLSRPLSSNEAAAKEAAAKEAAAKMAEQSDKDVKYYTLEEIQKHKDSKSTWLILHHKVYDLTKFLEEHPGGEEVLGEQAGGDATENFEDVGHSTDARELSKTYIIGELHPDDRSKIAKPSETL
modifications: Amino acid Sequence of aMTD830-P2-1-24B
notes: aMTD830-replaced P2-1-24B
B4: the “overcoming leptin resistance” value in data set [2] is “overcame leptin resistance”. The “stability (turbidity) in serum free medium” value in data set [3] was “stable”.

B5: aMTD524-P2-1-23: SEQ ID No. 280; contains SH2 (L69-Q96), SH2 (H125-M128) and SH2 (A164-N185) (protein)
chain: AVALIVVPALAPEAAAKLIRDSSDQRHFFTLSVKTQSGTKNLRIQEAAAKEAAAKEAAAKEAAAKHHYMGSGSGSGSAYYIYSGGEKIPLVLSRPLSSN
modifications: Amino acid Sequence of aMTD-P2-1-23
Take B5: in data set [2], the “overcoming leptin resistance” value is reported as “did not”.

B6: aMTD524-37: SEQ ID No. 283; truncate from the SH2 domain containing aMTD and SH2 (L69-Q96) (protein)
chain: AVALIVVPALAPEAAAKLIRDSSDQRHFFTLSVKTQSGTKNLRIQCEGGSFSLQSDPRSTQPVPRFDCVLKLVHHYM
modifications: Amino acid Sequence of aMTD524-37
Take B6: the “overcoming leptin resistance” value in data set [2] was “did not overcome leptin resistance”.

B7: aMTD524-P2-1-21: SEQ ID No. 279; contains SH2 (T52-A62), (L69-Q96), (V120-M128) and (A164-N185) (protein)
chain: TGGEANLLLSAGSGSGSGSGSGSGSGSAVALIVVPALAPEAAAKLIRDSSDQRHFFTLSVKTQSGTKNLRIQGGGGSGGGGSGGGGSGGGGSVLKLVHHYMGSGSGSGSAYYIYSGGEKIPLVLSRPLSS
modifications: Amino acid Sequence of aMTD-P2-1-21
For the molecule B7, the “overcoming leptin resistance” value in data set [2] is reported as “did not”.

B8: aMTD524-36: SEQ ID No. 282; truncate from the SH2 domain containing aMTD and SH2 (L69-Q96) (protein)
chain: AVALIVVPALAPEAAAKGFYWSAVTGGEANLLLSAEPAGTFLIRDSSDQRHFFTLSVKTQSGTKNLRIQCEGGSFSLQSDPRSTQPVPRFDCVLKLVHHYMGSGSGSGSAYYIYSGGEKIPLVLSRPLSSN
modifications: Amino acid Sequence of aMTD524-36
For B8, the “overcoming leptin resistance” value in data set [2] is “did not overcome leptin resistance”.

B9: aMTD830-P2-1B: SEQ ID No. 255; aMTD830-replaced P2-1B, SH2 (L69-Q96) and SDB (protein)
chain: IALVAAPVALVPEAAAKLIRDSSDQRHFFTLSVKTQSGTKNLRIQEAAAKEAAAKEAAAKMAEQSDKDVKYYTLEEIQKHKDSKSTWLILHHKVYDLTKFLEEHPGGEEVLGEQAGGDATENFEDVGHSTDARELSKTYIIGELHPDDRSKIAKPSETL
modifications: Amino acid Sequence of aMTD830-P2-1B
notes: aMTD830-replaced P2-1B, SH2 (L69-Q96) and SDB
For the molecule B9, the “overcoming leptin resistance” value in data set [2] is “overcame leptin resistance”. For the same molecule, the “stability (turbidity) in serum free medium” value in data set [3] is “stable”.

Source of the values: patent US20230357339A1, “Development of Cell-Permeable Truncated SOCS3 SH2 Domain (CP-SD) Recombinant Protein for Anti-Obesity Agent” (Cellivery Therapeutics, Inc., priority 2020, published 2023).
